The target in one data set is T1, LapD^EAL (Pseudomonas fluorescens, UniProt Q3KK31, A602E).
T1 construct: isolated degenerate EAL domain, residues 399-648; purified; dimer with c-di-GMP
T1 sequence (Q3KK31 399-648 A602E): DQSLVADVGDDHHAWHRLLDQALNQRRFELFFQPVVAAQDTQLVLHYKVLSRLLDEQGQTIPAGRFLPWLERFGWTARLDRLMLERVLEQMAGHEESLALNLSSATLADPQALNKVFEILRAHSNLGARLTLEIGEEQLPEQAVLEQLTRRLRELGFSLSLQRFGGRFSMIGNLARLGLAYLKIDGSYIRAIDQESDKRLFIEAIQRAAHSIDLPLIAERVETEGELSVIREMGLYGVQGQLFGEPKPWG
Nature of the data set: radioligand filter binding, one-site fit. The settings on record: read-out: Apparent K d. The text has this:
radioligand filter binding, one-site fit on LapD^EAL

The target of data set [1] is T2, LapD^dual (Pseudomonas fluorescens, UniProt Q3KK31).
T2 construct: cytoplasmic S helix-GGDEF-EAL dual domain module, residues 220-648, lacks HAMP; purified; apo monomer, dimerizes with c-di-GMP
T2 sequence (Q3KK31 220-648): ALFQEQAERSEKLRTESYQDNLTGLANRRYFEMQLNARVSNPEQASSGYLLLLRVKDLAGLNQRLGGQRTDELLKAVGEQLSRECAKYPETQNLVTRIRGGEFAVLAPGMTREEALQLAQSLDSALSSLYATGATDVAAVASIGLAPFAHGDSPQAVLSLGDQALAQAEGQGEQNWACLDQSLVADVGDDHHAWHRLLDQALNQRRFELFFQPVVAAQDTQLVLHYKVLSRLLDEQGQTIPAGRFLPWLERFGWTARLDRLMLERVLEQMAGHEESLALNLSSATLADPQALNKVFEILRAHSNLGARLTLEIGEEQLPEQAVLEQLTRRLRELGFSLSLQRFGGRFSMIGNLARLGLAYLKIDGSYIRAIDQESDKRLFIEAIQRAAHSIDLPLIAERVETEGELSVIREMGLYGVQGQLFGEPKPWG
The data set can be described thus: radioligand filter binding, one-site fit. To be noted: read-out: Apparent K d. From the text:
(§1) radioligand filter binding, one-site fit on LapD^dual

In data set [2] the target is T3, LapD^dual (Pseudomonas fluorescens, UniProt Q3KK31, A602E).
T3 construct: cytoplasmic S helix-GGDEF-EAL dual domain module, residues 220-648, lacks HAMP; purified; apo monomer, dimerizes with c-di-GMP
T3 sequence (Q3KK31 220-648 A602E): T2 sequence (Q3KK31 220-648)
Nature of the data set: radioligand filter binding, one-site fit. To be noted: read-out: Apparent K d.
Description: as §1

In data set [3] the target is T4, LapD^dual (Pseudomonas fluorescens, UniProt Q3KK31, A602E/S229D).
T4 construct: cytoplasmic S helix-GGDEF-EAL dual domain module, residues 220-648, lacks HAMP; purified; apo monomer, dimerizes with c-di-GMP
T4 sequence (Q3KK31 220-648 S229D/A602E): T2 sequence (Q3KK31 220-648)
The data set can be described thus: radioligand filter binding, one-site fit. To be noted: read-out: Apparent K d.
Description: as §1

Data set [4] concerns the target T5, LapD^dual (Pseudomonas fluorescens, UniProt Q3KK31, E262A).
T5 construct: cytoplasmic S helix-GGDEF-EAL dual domain module, residues 220-648, lacks HAMP; purified; apo monomer, dimerizes with c-di-GMP
T5 sequence (Q3KK31 220-648 E262A): T2 sequence (Q3KK31 220-648)
Nature of the data set: radioligand filter binding, one-site fit. The settings on record: read-out: Apparent K d.
Description: as §1

The target of data set [5] is T6, LapD^dual (Pseudomonas fluorescens, UniProt Q3KK31, S229D).
T6 construct: cytoplasmic S helix-GGDEF-EAL dual domain module, residues 220-648, lacks HAMP; purified; apo monomer, dimerizes with c-di-GMP
T6 sequence (Q3KK31 220-648 S229D): T2 sequence (Q3KK31 220-648)
The data set can be described thus: radioligand filter binding, one-site fit. To be noted: read-out: Apparent K d.
Description: as §1

Data set [6] concerns the molecule itself. Nature of the data set: SEC-MALS; protein incubated with 500 µM c-di-GMP for 30 min at room temperature before SEC, no c-di-GMP in the mobile phase; 20-320 µM injected protein; 25 mM Tris-HCl pH 8.4, 250 mM NaCl; 25°C. Background: SEC sorts molecules by how far they enter the pores of the column.
Data set [7] deals with the molecule itself. Nature of the data set: AUC; sedimentation equilibrium, no c-di-GMP; 1x, 2x, 4x dilutions of ~12 µM protein; 25 mM Tris pH 7.5, 150 mM NaCl; 20°C; 10,000, 14,000 and 20,000 rpm, global fit; monomer:dimer equilibrium.
Data set [8] concerns the molecule itself. Nature of the data set: AUC; sedimentation equilibrium with 20 µM c-di-GMP; 1x, 2x, 4x dilutions of ~12 µM protein; 25 mM Tris pH 7.5, 150 mM NaCl; 20°C; global fit with dinucleotide binding and dimerization of the c-di-GMP-bound form; monomer:dimer equilibrium.
Data set [9] deals with the molecule itself. The data set can be described thus: crystal structure; LapD^output, selenomethionine-derivatized, 1.8 Å, two molecules per asymmetric unit.
The target of the next data set is T7, His6-tagged LapG (P. fluorescens).
T7 chain: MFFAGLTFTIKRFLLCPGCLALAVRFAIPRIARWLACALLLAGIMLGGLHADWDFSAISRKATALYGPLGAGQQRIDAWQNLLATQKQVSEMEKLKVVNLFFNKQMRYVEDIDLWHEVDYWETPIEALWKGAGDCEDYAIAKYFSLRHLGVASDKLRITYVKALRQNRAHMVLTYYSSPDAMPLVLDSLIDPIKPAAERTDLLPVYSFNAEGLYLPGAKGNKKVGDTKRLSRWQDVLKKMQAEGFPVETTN
The data set can be described thus: pull-down; His6-LapG bound to NiNTA resin, untagged LapD output domain variants added, 1 h at 4°C; 25 mM Tris-HCl pH 8.4, 75 mM NaCl, 25 mM KCl, 40 mM imidazole; eluates on SDS-PAGE (Coomassie; SYPRO Ruby for quantification). The settings on record: both partners purified.

Changes are numbered by the printed parent chain. Names may count otherwise. Bounds are passed on as bounds.

In the case of `Nc1nc2c(ncn2[C@@H]2O[C@@H]3CO[P@](=O)(O)O[C@H]4[C@@H](O)[C@H](n5cnc6c(=O)[nH]c(N)nc65)O[C@@H]4CO[P@](=O)(O)O[C@H]3[C@H]2O)c(=O)[nH]1` [c-di-GMP], the Kd on LapD^EAL is 36.3 ± 5.4 µM; at LapD^dual [1], 27 ± 4.7 µM; on LapD^dual [2], greater than 1000 µM; on LapD^dual [3] it was greater than 1000 µM; at LapD^dual [4] it was 15.3 ± 1.7 µM; on LapD^dual [5] it was 15.1 ± 1.8 µM.

B1: LapD^EAL, wild-type (EAL domain of LapD, residues 399-648) (domain or fragment, P. fluorescens Pf0-1, UniProt Q3KK31 399-648, looked up)
chain: T1 sequence (Q3KK31 399-648 A602E)
notes: LapD, P. fluorescens Pf0-1, residues 399-648 (degenerate EAL domain); also called isolated EAL domain; LapD^EAL•c-di-GMP; source: produced following standard molecular biology and liquid chromatography techniques, purified (protocols in Text S1)
Regarding B1, the binding result in data set [6] is listed as “binds”.

B2: LapD^dual S229D (domain or fragment, P. fluorescens Pf0-1, UniProt Q3KK31 220-648, looked up)
chain: T2 sequence (Q3KK31 220-648) with S10D
notes: LapD, P. fluorescens Pf0-1, residues 220-648, mutation S229D in the S helix; also called S helix-EAL interface mutant; source: produced following standard molecular biology and liquid chromatography techniques, purified (protocols in Text S1)
B2: the Kd in data set [7] was 420 µM; in data set [8], 0.18 µM.

B3: LapD^dual, wild-type (dual GGDEF-EAL domain module of LapD, residues 220-648) (domain or fragment, P. fluorescens Pf0-1, UniProt Q3KK31 220-648, looked up)
chain: T2 sequence (Q3KK31 220-648)
notes: LapD, P. fluorescens Pf0-1, residues 220-648 (S helix, degenerate GGDEF and EAL domains); also called apo-LapD^dual; intracellular module of LapD; source: produced following standard molecular biology and liquid chromatography techniques, purified (protocols in Text S1)
Consider B3, for which the figures for the Kd in data set [7] and in data set [8] were 400 µM and 0.67 µM, respectively.

B4: LapD^dual E262A (domain or fragment, P. fluorescens Pf0-1, UniProt Q3KK31 220-648, looked up)
chain: T2 sequence (Q3KK31 220-648) with E43A
notes: LapD, P. fluorescens Pf0-1, residues 220-648, mutation E262A in the GGDEF domain; also called GGDEF-EAL interface mutant; source: produced following standard molecular biology and liquid chromatography techniques, purified (protocols in Text S1)
As to B4, the binding result in data set [6] was “binds”.

B5: LapD^output, wild-type (periplasmic output domain of LapD, residues 22-151) (domain or fragment, P. fluorescens Pf0-1, UniProt Q3KK31 22-151, looked up)
chain: SFMVSLESSRTQYVNQLRSHAQDAATALALSLTPNIDDPAMVELLVSSIFDSGYYSSIRVVDLKTDQTIVERNGIPAVTNVPDWFVKLIGLEPAGGDALVSRGWEQAARVEVVSHPMFALAKLWQSALGS
notes: LapD, P. fluorescens Pf0-1, residues 22-151 (periplasmic output domain); untagged in the pull-down; domain-swapped dimer in the crystal; The crystals were grown with selenomethionine-derivatized protein; the final model spans residues 23-150; also called periplasmic domain of LapD; source: produced following standard molecular biology and liquid chromatography techniques, purified (protocols in …)
Turning to B5, the binding result in data set [9] is listed as “binds”. Further, the “stoichiometry N” value in the data set with His6-tagged LapG was 2 LapG molecules per output domain dimer.

Values taken from article PMC3032553, “Structural Basis for c-di-GMP-Mediated Inside-Out Signaling Controlling Periplasmic Proteolysis” (PLoS Biology, 2011).
